Reference: the nanobody polyreactivity screen of Harvey et al. (2022)

Test: yeast display, Sf9 membrane polyspecificity reagent, FACS + sequencing; frameworks hold sequencing errors
Method in brief: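 Galactose-induced (36–48 hours) yeast carrying a synthetic nanobody display library were exposed to 10% biotinylated, detergent-solubilized Sf9 membrane reagent at 4 °C for 1 hour. FACS followed streptavidin microbead enrichment, using low and high (top ~1%) gates for expression (anti-HA) and reagent binding (streptavidin). Colony PCR, MiSeq 2 × 250 sequencing and CDR-length filtering followed. Labels for polyreactivity reflect the gate of origin.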
For “QVQLEESGGGLVQAGGSLRLSCAASGFIITGYTMGWYRQAPGKERELVAVISYSGGNTYYADSVKGRFTSSRDNEKNTVYLQMISVKPDYTAVYYCNKLTYKGYEYWGQGTQVNVSS”, the “polyreactivity (PSR sort gate)” value was “high polyreactivity”. With “QVQLVESGGGLVQAGGSLRLSCAASGRTFNSYAMGWYRQAPGKERELVAAISRRGGSTYYADSVKGRFTISRDNAKNTVYLQMNSLKPEDTAVYYCASTIVQYISRMDYWGQGTQVTVSS” the “polyreactivity (PSR sort gate)” value was “high polyreactivity”. With “QVQLVESWGGLVQAGGSLRLSCAASGSTIDTNTMGWYRQAPGKEREWVAAITWSDASTYADSVKGRFTISRDNAKNTVYFQMNSLKPEDTAVYYCNADWTITVGYDYWGQGTKVTVSS” the “polyreactivity (PSR sort gate)” value was “low polyreactivity”. For “QVQLVESGGGLVQAGGSLRLSCAASGFTFGSYAMGWYRQAPGKERELVAAISRGGTTYYADSVKGRFTVSRDNAKNTVYLQMNSLKPEDTAVYYCATALIVRGPSRYEYWGQGTQVTVSS”, the “polyreactivity (PSR sort gate)” value was “high polyreactivity”. In the case of “QIQLVESGGGLVQAGGSLRLSCSASGSISGYYSRRWYRQAPGKQSEFVASIRYTGARTYYADSVKGRFTISLDNAKNTVYLQMNSLIAEDTAVYFWAADVKRDSVWGGDYWGQGNQVTVSS”, the “polyreactivity (PSR sort gate)” value was “low polyreactivity”. With “QVQLVESGGGLVQAGGSLRLSCAASGSIFGGYGMGWYRQAPGKERELVAVITKRGGSTYYADSVKGRFTISRDNAKNTVYLQMNSLKPEDTAVYYCNADYRRYPEFDYWGQGTQVTVSS” the “polyreactivity (PSR sort gate)” value was “high polyreactivity”. For “QVQLVESGGGLVQAGGSLRLSCAASGSIFYSNAMGWYRQAPGKERELVAAISGSGGTTYYADSVKGRFTISRDNAKNTVYLQMNSLKPEETAVYYCAAKPSVRVRLSDYWGQGTQVTVSS”, the “polyreactivity (PSR sort gate)” value was “high polyreactivity”. In the case of “QVQLVESGGGLVQAGGSLRLSCAASGYTFRQYAMGWYRQAPGKERELVAAIRYSGASTYYADSVKGRFTISRDNAKNTVYLQINSLKPEDTAVYYWNAALRLWGEYIYDYWGQGTQVTVSS”, the “polyreactivity (PSR sort gate)” value was “low polyreactivity”. With “QVQLVESGVGLVQAGRSLRLSCAASGFTFGAYAMGWYRQAPGKERELVAAITRRGGSTYYADSVKGRFTISRDNAKNTVYLQMNSLKPEDTAVYYCAARRGRVLTKVSGYYSWGQGTQVTVSS” the “polyreactivity (PSR sort gate)” value was “high polyreactivity”. With “QVQLVESGGGLVQAGGSLRLSCAASGSTLRVNAKGWYRQAPGKERELVAAISYRGGSTYYADSVKGRFTISRDNAKNTVYLQMNSLKPEDTAVYYCAAKQGATRGYYYWGQGTQVTVSS” the “polyreactivity (PSR sort gate)” value was “high polyreactivity”. In the case of “QVQLVESGGGLVQAGGSLRLSCAASGSTFYYYAMGWSRPAPGKERELVAAISTRGGSTYYADSVKGRFTISRDNAKNTVYLQMNSLKPEDTAVYYCAKKYGYFGLHGYWGQGTQVTVSS”, the “polyreactivity (PSR sort gate)” value was “high polyreactivity”. With “QVQLVESGGGLVQAGGSLRLSCAASGSIFGWYAMGWYRQAPGKERELVAAITFSSVSTYYADSVKGRFTISRDNAKNTVYLQMNSLKPEDTAVYYCAAVVYYTFDYWGQGTQVTVSS” the “polyreactivity (PSR sort gate)” value was “low polyreactivity”. For “QVQLVESGGGIVQAGGSLRLRCAATASIYVHYAMGWYIQAPGKETDLVAAIRWRGGSTNYADSVKGRFTISRDNAKNTVDLQMNSLKQEDTAVSYCNARHPASGDLYRMDYWGPGTQVTVSS”, the “polyreactivity (PSR sort gate)” value was “low polyreactivity”. With “QVQLVESGGGLVQAGGSLRLSCAASGTFSPYAMGWYRQAPGKESELVAVITSNTGRTYADSVKGRFTISRDNAKKTVYLQMNSLKPEDTAVYYCAARSTYRHWYRTGSRFDYWGQGTQVTVSS” the “polyreactivity (PSR sort gate)” value was “low polyreactivity”. In the case of “QVQLVESGGGLVQAGGSLRLSCAASGFTFGNNAMGWYRKAPGKERELVAAISKRGSSTYYADSVKGRFTISRDNAKNTVYLQMNSLKPEDTAVYYCAAEGRRTRYYYWGQGTQVTVSS”, the “polyreactivity (PSR sort gate)” value was “high polyreactivity”. For “QVQLVESGGGLVQAGGSLRLSCAASGFIFPLYTMGWDRQAPGKERELVAAISVTGGSTYYADSVKGRFTISRDNAKNTVYLQMNSLKPEDTAVYYCAADLYYIWVYGYSSAMDYWGQGTQVTLSS”, the “polyreactivity (PSR sort gate)” value was “high polyreactivity”. With “QVQLVESGGGLVQAGGSLRLSCAASGLTFVLYAMGWYRQAPGKERELVAAISKRGGSTNYADSVKGRFTISRDIAKNTVYLQMNSLKPEDTAVYYCAARYPQGGTGKATYVRSRSGYWGQGTKVTVSS” the “polyreactivity (PSR sort gate)” value was “high polyreactivity”. In the case of “QVQLVESGGGLVQAGGSLSLSCAASGSTFKHYAMGWYRKAPGKERELVAAISSRGGSTHYADSVKGRFTISRDNAKNTVYLQMNSLKPEDTAVYYCARDTDPQSSRSSDYDYWGQGTQVTVSS”, the “polyreactivity (PSR sort gate)” value was “low polyreactivity”. With “QVQLVESGGGLVQAGGSLRLSCAASGSTFQLYAMGWYRQAPGKERELVATISWRGGSTYYADSVKGRFTISRDNAKNTVYLQMNSLKPEDTAVYYCAADFYLRGRYYSRYGSWGQGTQVTVSS” the “polyreactivity (PSR sort gate)” value was “high polyreactivity”. For “QVQLVESGVGLVQAGGSLRLSCAASGSIFGLYAMGCYRQAPGKERELVAAISTSDTSTYYADSVKGRFTISRDNAKNTVYLQMTSLKQEDTAVYYCAADTYDNFDYSGQGTQVTVSS”, the “polyreactivity (PSR sort gate)” value was “low polyreactivity”. With “QVQLVESGGGLVQAGGSLRLSCAASGRIFWHNAMGWYRQAPGTERELVAAITGGGSTYYADSVKGRFTISRDNAKNTVYLQMNSLKPEDTAVYYCATLGSLRYYWPGYDYWGQGTQVTVSS” the “polyreactivity (PSR sort gate)” value was “low polyreactivity”. With “QVQLVESGGGLVQAGGSLRLSCAASGSTFVSYAMGWYRQAPGKERELVAAISFSDDSTYYADSVKGRFTISRDNAKNTVYFQMHSLKPEDTAVYYCAAASDSYVRVLEGFTFDYWGQGTQVTVSS” the “polyreactivity (PSR sort gate)” value was “low polyreactivity”. For “QVQLVESGGGLVQAGGSLRLSCAASGSTLVAYAMGWYRQAPGKERELVAAISRSGGNTYYADSVKGRFTISRDNAKNTVYFQMISLKPEDTAVYYCAAVRLYRYDYWGQCTQVTVSS”, the “polyreactivity (PSR sort gate)” value was “low polyreactivity”. In the case of “QVQRVESGGGLVQAGGSLRLSCAASGFIISWYAMGWSRQAPGKERELVAAISSGGSTTYADSVKGRFTISRDNAKNTVSLQMNSLKPEDTAVYYCNADQVYGYNYWGQGTQVTVSS”, the “polyreactivity (PSR sort gate)” value was “high polyreactivity”. In the case of “QVQLQESGGGLVQAGGSLRLSCAASGSIYDDTYMGWYRQAPGKERELVATIDSGSTTNYADSVKGRITISRDNAKYTVYLQMNSLKPEDTAVYYCAAADSHIDYFDYWGQGTQVTVSS”, the “polyreactivity (PSR sort gate)” value was “low polyreactivity”. For “QVQHVESRGGLVQAGGSLRLSCAASGFTFSRNAMGRYRQAPGKESDLVAAIDSGGSTDYADSVKGRFTNSRDNAKNTVYLQMNSLKPADTAVYYCAKASSATRYVQLRQDYDYWGQGTKVTVSS”, the “polyreactivity (PSR sort gate)” value was “low polyreactivity”. With “QVQLVESGGGLVQAGGSLRLSCASSGRTFTHYAMGWYRQAPGKERELVASISDGGRTHYADSVTGRFTISRDNAKNTVYLQMNSLKPEDTAVYYCATDRYPTRRYDYWGQGTQVTVSS” the “polyreactivity (PSR sort gate)” value was “low polyreactivity”. In the case of “QVQLVESGGGLVQAGGSLRLSCAASGSIFYVYAMGWYRQAPGKERELVAAITNYADSVKGRFTISRDNAKNTVYLQMNSQKPPDTAVYYCAADWWRVEMDYWGQGTQVTVSS”, the “polyreactivity (PSR sort gate)” value was “low polyreactivity”. With “QVQLVESGGGLVQAGGSLRLSCAASGFTLTLRYAMGLYRQAPGKERELVAAISSGGRTKYADSVKGRFTISRDNAKNTVYLQMNSRKPEDTAVYYCNAVTQREYEEGDYWGQGTQVTVSS” the “polyreactivity (PSR sort gate)” value was “high polyreactivity”. With “QVQLVESGGGIVQAGGSLRLSCAASGSTGFNTMGWYRQAPGKERELVAAIRATGGSTYYADSVKGRFTISRDNAKNTVYLQMNSLKPEDTAVYYCAAKWFRQYLRQDRYYYWGQGTQVTVSS” the “polyreactivity (PSR sort gate)” value was “high polyreactivity”. In the case of “QVQLVESGGGLVQAGGSLRLSCAASGRTFAYNTMGWYRQAPGKESELVAAITWSGGGTYYADSVKGRFTISRDNAKNTVYLQMNSLKPEDTAVYYCAVEYASPRARYRYYYWGQGTQVTVSS”, the “polyreactivity (PSR sort gate)” value was “high polyreactivity”. In the case of “QVQLVESGGGLVQAGGSLRLSCAASGFTFGENAMGWYRQAPWKERELVAAITSGDGTSYADSVKGRFTISRDNAKNTVYLQMNSLKPEVTAVYDCAADGGDELYYSTYDYWGQGTQVTVSS”, the “polyreactivity (PSR sort gate)” value was “low polyreactivity”.
